Legend:
[1] = target: T1, recombinant sushi domain protein; assay: FP
T1 chain: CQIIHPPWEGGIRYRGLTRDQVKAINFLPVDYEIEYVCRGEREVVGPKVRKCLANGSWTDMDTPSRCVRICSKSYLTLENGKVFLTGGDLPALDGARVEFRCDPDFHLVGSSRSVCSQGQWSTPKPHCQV

[2] = target: T1, recombinant sushi domain protein; assay: ITC
[3] = target: recombinant sushi domain protein; assay: ITC; 100 μM hAJAP17 or 300 μM W183C peptide injected into 10 or 30 μM sushi domain protein in the cell; 25°C; 20 mM NaPi pH 7.4; one-site binding model
[4] = target: recombinant sushi domain protein; assay: fluorescence polarisation; competition: preformed complex of sushi domain protein (40 nM) and TMR-hAJAP17 (25 nM) outcompeted with unlabeled peptides (0.006 to 6.25 μM or 0.03 to 62.5 μM); 20 mM NaPi pH 6.8, 50 mM NaCl, 0.5 mM EDTA, 1% BSA, 25°C; Ki calculated from sigmoidal dose-response fits
TMR-hAJAP17 (human) = target: T2, TMR-hAJAP17 (human); assay: fluorescence polarisation; saturation binding: sushi domain protein (0.73 to 1500 nM) added to TMR-hAJAP17 (25 nM); 20 mM NaPi pH 6.8, 50 mM NaCl, 0.5 mM EDTA, 1% BSA, 25°C; one-site binding model
T2 chain: ETEFIAWGPTGDEEALE

ETEFIACGPTGDEEALE [hAJAP17-W183C]
Ki [1]: 49.3 µM | Kd [2]: 46.7 µM

B1: mAJAP17-W183C (peptide)
chain: ETEFIACGPTGDEDALE
modifications: Limits taken by alignment with the printed human 17-mer … (177-193, W183 at position 7; W183 has the same number in mouse). C-terminal amide is likely, as printed for the TMR-hAJAP17 peptide, but is not stated for this one
Ki [1]: 44.8 µM

ETEFIAWGPTGDEEALE [hAJAP17]
Kd [3]: 0.047 µM | stoichiometry N [3]: 1 | Ki [4]: 0.06 µM

B2: recombinant sushi domain protein (domain or fragment)
chain: T1 chain
modifications: not checked
Kd (TMR-hAJAP17 (human)): 0.0204 µM
